Reference: the supplement of paper PMC9170038

Test system: K4 kissing-loop RNA reporter
Test: apparent KD of K4 kissing-loop reporter; higher = weaker reporter binding
Conditions: Eterna round: R107; input ligand: none
Protocol: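 RNA-MaP round R107: designed RNA switches with theophylline, tryptophan, arginine or FMN aptamers are transcribed on-chip within common flanks. They are titrated with a labelled K4 kissing-loop RNA reporter in RNA-MaP buffer (100 mM Tris pH 7.5, 80 mM KCl, 4 mM MgCl2), without ligand or with the indicated ligand. Median apparent KD per design.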
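Further: bound reporter read as fluorescence of individual clusters on recovered sequencing chips by microscopy, with normalized cluster intensities fitted with a binding model.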

In order of rising “apparent KD of K4 kissing-loop reporter” value:
1. AGAGUACGAAAGUACUCCUCUACACACUGCCGAGGACCGGUACGGCCGCCACUCGAGUUGAGUGAUGUUCGACAGUGUGUAGAGA [Omei KL Tryp A SS C v2]  79 nM
2. AAUUUACAAUAAUCAUUUAAAGGAUCAGAAGGAGCGUGUUAUAACACAGGUAGGUCGCUGAGCGAGUGAUGUUCGCUAUAUACAA [JR_ExcArginiA_Sub002]  90.8 nM
3. AAAUAUUCGAGUGAUGUUCGAUAAAUUUCAGAGGAUAUGCUUAAAAGCAGAAGGCUGUAUUUCUAUUUGUUAUUAAAUUUUAUAA [JR_ExcFMNA_Sub002]  91.1 nM
4. GUAUCGCUAGGAGGAUAUGUCGUUUUUCAUAGCAAUGGCUGUGCGGAGUGAUGUUCCGAUUUACCGGCAGAAGGCCUAGUGAUAC [FMN B 28]  92.9 nM
5. GUGCAGUGAUGUUGCACGAGGAAAGACGAUACCAGCCGUAAAUAAGGCCCUUGGCAGCGUAAGCUAGCAUAAAGUAUGCUAGUCC [Onarve]  103 nM
6. UGAUAGGACAGAAGGAGCGGAGCUGGUCAAAGACCAGCAAUAACGUUGAAAGGAGUGAUGUUCCAGGUAGGUCGCUGUCCUAUCU [ArgBX 26 #SwitchBubble #StaticStem]  120 nM
7. AGUGAGUGAUGUUCACUGUACGUGUCUGAAGGAGCGACAUCGAUGUCAGGUAGGUCGCAGACAUGUCAUCUAUGGUGCGUGACCA [Arg A SS t10]  129 nM
8. AAAUAAAUCACGGCCGCCACUGUAAGUUGAAGUGAUGUUUCAAGAUAUAGUAUGUUUUAUAAUAUCAGGACCGGGUGAUUUUUAA [JR_SSTryptoB_Sub021]  133 nM
9. UGAUAGGACAGAAGGAGCGGAAGUGAUGUUUCCAAAUGGAAUAAGGUGUCAAAGACACCCUUCCAGGUAGGUCGCUGUCCUAUCU [ArgBX 15 #Palindromic #SwitchBubble #StaticStem]  140 nM
10. GCGUCUGUCGGAAGGAGCGCACUAUGGAGUGAUGUUCCAUGACCGCACAGCUUGCGGUCAGUGCAGGUAGGUCGCCGAUAGCGUU [Diestera]  154 nM
11. UGUAUGUGAUUUGAUACCAGACCAGCUGGUGGAUCACGAGUGAUGUUCGUGUUGGUUUGGGUCCCUUGGCAGCAAAUCGCAUACU [KL-SSTheoB13]  180 nM
12. CGCAGUGAUGUUGCGAGUAGCUACAGGGAAGGAGCGUGCUAGAGCACAGGUAGGUCGCCCACUGGGUCAGUGAUGUUGGUCGGGU [Same State Arginine A GF 29]  180 nM
13. GCCGUAGAUUGAAGGAGCGCUAGUCUACGAUGACACACAGUGAUGUUGUGCGUGAUUUCAUAGCAGGUAGGUCGCAAUCUACGGC  214 nM
14. GUGCGGCUAGUGAUGUUGGUUGCGUGGGAAGGAGCGCAGAAACAUGCAGGUAGGUCGCCCACAUCUCUGAUAAAAGAUUAAUUCA [Riares]  235 nM
15. AAACUACGUGACGAUACCAGCUUACUCGGCAAGCCAGUGAUGUUGGUGAAAAGGAGUCAAAGCCCUUGGCAGCGUCGAAGGUUUG [Usandiat]  252 nM
16. CGAGUGAUGUUCGUUUUUUACUUUUUUUGACAGGAUAUGCGGAAACGCAGAAGGGUCACCUUUGAGUUAAAAGAAGUUAUUUUUU [Ex FMN A 18]  317 nM
17. CCGAAGAACCAGUGAUGUUGGUUGACUAGACAGGAUAUGAGCAACAUCAGAAGGGUCUGGCUUCGGGAGUGAGUCGCGCUGACUU [Reverigeed]  319 nM
18. AGACUACCACACUGUCAAUAGACAGUGAGCUAGGAUAUGCUGAUAAGCAGAAGGAGUGAUGUUCCUAGGUAGUCAAUAAAAUAAU [FmnAX 13 G29]  435 nM
19. UAACUGCAGUGAUGUUGCAGAUGUCCUGACUAGGAUAUCAGGAAACUGAGAAGGAGUCCCUUCUACUGCAACAAGAAGGAGGACA [[K1]-[K2]-[F1]'-[F1]-[F2]-[F2]'-[K]'-[F]''_Design2]  436 nM
20. GGAUCCACCAGUGAUGUUGGAGAAAACUUCAAGGAUAUGACGAAAGUCAGAAGGUGAUAGACUGGACAAAGUCCGGUCGGAUCCA [FmnA 19 U29+A57]  454 nM
21. GCCGCAAGGAUAGCAGCAAUAGGCGCUCGCUAGGAUAUCUGGAAACAGAGAAGGAGCUGGAGUGAUGUUUUACCUCCUAAAAUUA  682 nM
22. AAGAGCUAGGCGGCCGCCACUAGAUGUGAACACAUACAAACCAGUGAUGUUGGUAUGAUGGACAGUAGGACCGGGCCUAGCUGAA [Exclusion - Tryptophan B (Freestyle 10)]  1010 nM

Same assay, conditions: Eterna round: R107; input ligand: theophylline 20 uM

In order of falling “apparent KD of K4 kissing-loop reporter” value:
1. AAGAGCUAGGCGGCCGCCACUAGAUGUGAACACAUACAAACCAGUGAUGUUGGUAUGAUGGACAGUAGGACCGGGCCUAGCUGAA [Exclusion - Tryptophan B (Freestyle 10)]  1350 nM
2. UUUGGAGAGGGAAGGAGCGUGAAAGAGAAAGAAUAUAGUGAUGUUAUAUAGAAGAAAGAAUCACAGGUAGGUCGCCCGGAGGAGG [SSArgB.D]  990 nM
3. GCGCAUGUUAAAGGAUAUAGCAGGUGAUACAAGAAAGUGAGUGAUGUUUAUGUAGAUGAUGAUAUGUUAGAAGGUUAACAAACGC [abcdefghijklmno]  867 nM
4. AGGCACGAGCAAGGAUAUCGAGUGGAGUGAUGUUCUGCCGACCCAGGACCGCAAGGUCCUGGGUCGCGAGAAGGUGCUCGUGCCU [#2 Same State - FMN A Attempt #5 (HarryS)]  676 nM
5. AGCCGAAAGGCGAGUGCUGUCACUCCGGAAGGAGCGCAGGAAACUGCAGGUAGGUCGCCGGAGUGAUGUUCCGGUGCAGCACUCA [Omei KL Arginine A Exc B v6]  561 nM
6. AGGAUCCGUCGACAAAAGUCGACAUAAUCCAAGGAUAUGACGAAAGUCAGAAGGUGGACAUAAGUCCAGUGAUGUUGGAGGAUCC [FmnA 16 #SwitchBubble #K4Late]  557 nM
7. GUAUUUCCCUCGGAUACCAGUCAUCAUGAGUAUAGUGAUGUUGUACGUCCGGAUGAUUUUGACCCUUGGCAGCCGUCUCCUUGAA [theeternabot_sameState_KL_Theo_B_49]  497 nM
8. GGAUGGUAGGCGGCCGCCACUAAAUGUGAACACAUACAAGCCAGUGAUGUUGGUAUGAUGGACAAUAGGACCGGGCCUAGAUAGA [Exclusion - Tryptophan B (Freestyle 7)]  495 nM
9. UUUGUAUAGGGAAGGAGCGUGAAUGAUAAUGAAUAUAGUGAUGUUAUAUAUAAGAAAGAAUCACAGGUAGGUCGCCCGGAUGAGU [SSArgB.L]  447 nM
10. AAGCAGUCACUCGCAGCCAUCGAAGAUGGGCGAGGACCGGUACGGCCGCCACUCGGAGUGAUGUUCCGCAGACUGCAAAAUAAAA  437 nM
11. CGCGCGGGUUGAGAGGUUCGCGCGAAUGAUACCAGUAUAUAAGAAUACCCUUGGCAGCAUAAGAAAGAUAUAGUGAUGUUGUAUA [SSTheophA.G]  355 nM
12. GUGCGGCUAGUGAUGUUGGUUGCGUGGGAAGGAGCGCAGAAACAUGCAGGUAGGUCGCCCACAUCUCUGAUAAAAGAUUAAUUCA [Riares]  338 nM
13. CAUACGCAUGGAGGAUAUGAGAUUACUCGUAUCAUUUAAUAUUCUCAGUGAUGUUGAGAUUUGGGCUCAGAAGGCCAUGUGUAUG [Ex FMN B 16]  324 nM
14. AGAACUGUCUUGGAUACCAGUGAUGUUGGUAUCGAUGUGUGAGUGCAAAGCGUCCCAGAGUGCCCUUGGCAGCUAAGACUGUUCA [#16 K4 Theophylline B Exclusion]  261 nM
15. CCGAAGAACCAGUGAUGUUGGUUGACUAGACAGGAUAUGAGCAACAUCAGAAGGGUCUGGCUUCGGGAGUGAGUCGCGCUGACUU [Reverigeed]  254 nM
16. CCAGAAUGAUGAAGAUGAUAAAUUACUGAAGGAGCGCAUAUAGUUGCAGGUAGGUCGCGGUGAAUAAGUAUAGUGAUGUUAUACC [SSArgA.Ac]  217 nM
17. GGAGAGGUCUUGUUUGGAUGUGAUUAAUGGCGAGGACCGGUACGGCCGCCACUCGGGUGAUGUUAGUGAUGUUGAUGUAGUGAUG [uyumullin]  206 nM
18. UGGAGUUGACGAAAAGUCAACUCCUGAGAUACCAGUGACGAAAGUCACCCUUGGCAGCUCACUGCCAGUGAUGUUGGAAAAUAAA [#OpenEnded 1]  204 nM
19. CGCGCGCGUUUGAGAGGGUGCGCGCGAAGUGAGGAUAUUUAGGGAGAAAGAAGGCACUAUAAAAUAUAGUGAUGUUAUAUAAGGG [SSFMNA.G]  187 nM
20. AAUAUCUAGUAUAUAUUUAAUAAAACAGAUACCAGUGAUAAUAGACACCCUUGGCAGCUGGACGAGUGAUGUUCGUAUAUAUUAA [JR_SSTheophyA_Sub007]  184 nM
21. CGCAGUGAUGUUGCGAGUAGCUACAGGGAAGGAGCGUGCUAGAGCACAGGUAGGUCGCCCACUGGGUCAGUGAUGUUGGUCGGGU [Same State Arginine A GF 29]  171 nM
22. UGAUAGGACAGAAGGAGCGGAGCUGGUCAAAGACCAGCAAUAACGUUGAAAGGAGUGAUGUUCCAGGUAGGUCGCUGUCCUAUCU [ArgBX 26 #SwitchBubble #StaticStem]  163 nM
23. UGAUAGGACAGAAGGAGCGGAAGUGAUGUUUCCAAAUGGAAUAAGGUGUCAAAGACACCCUUCCAGGUAGGUCGCUGUCCUAUCU [ArgBX 15 #Palindromic #SwitchBubble #StaticStem]  161 nM
24. GUAUACAUAGAUCACCUUGUAGUGAUGUUGCGAGGACCGGUACGGCCGCCACUCGAAGUACGAAAGUACAAAGAUCUAUGUAUAC [Exclusion Trypto A - 1]  136 nM
25. UGUCAUGGAAACAUGAACGUUGAAAUAAAUCGAGGACCGGUACGGCCGCCACUCGUAUAGCGGUCAGUGAUGUUGACUGUAAUAA [KL-SSTryp-A form2 sub9]  132 nM
26. AGAGUACGAAAGUACUCCUCUACACACUGCCGAGGACCGGUACGGCCGCCACUCGAGUUGAGUGAUGUUCGACAGUGUGUAGAGA [Omei KL Tryp A SS C v2]  132 nM
27. UGUAUGUGAUUUGAUACCAGACCAGCUGGUGGAUCACGAGUGAUGUUCGUGUUGGUUUGGGUCCCUUGGCAGCAAAUCGCAUACU [KL-SSTheoB13]  131 nM
28. AAAUAAAUCACGGCCGCCACUGUAAGUUGAAGUGAUGUUUCAAGAUAUAGUAUGUUUUAUAAUAUCAGGACCGGGUGAUUUUUAA [JR_SSTryptoB_Sub021]  115 nM
29. AAAUAUUCGAGUGAUGUUCGAUAAAUUUCAGAGGAUAUGCUUAAAAGCAGAAGGCUGUAUUUCUAUUUGUUAUUAAAUUUUAUAA [JR_ExcFMNA_Sub002]  111 nM
30. AGAUUCGACACGGCCGCCACUUCCAGUGGUCGGUGUCAUGGUGCACAUGAGUGAUGUUCAUGUGGAAGGACCGGGUGUUGAGUCU [KL-XTryp-B3 #analogue]  108 nM
31. GUAUCGCUAGGAGGAUAUGUCGUUUUUCAUAGCAAUGGCUGUGCGGAGUGAUGUUCCGAUUUACCGGCAGAAGGCCUAGUGAUAC [FMN B 28]  106 nM
32. UAGUCAUACAGAGGAUAUCGUAUGAGUGAUGUUCAUACGAUAUAAUCUAAUUGUAUAGAUGUUCGACGAGAAGGCUGUAUGACUA [FMN B Ex t1a]  91.3 nM
